The text below walks through data of the RNAGym collection of RNA variant scans (doi:10.1073/pnas.2313332121).

Sequences and labels used below:
B1: TPR 5TU (parent)
chain: GGAUCUUCUCGAUCUAACAAAAAAGACAAAUCUGCCACAAAGCUUGAGAGCAUCUUCGGAUGCAGAGGCGGCAGCCUUCGGUGGCGCGAUAGCGCCAACGUUCUCAACUAUGACACGCAAAACGCGUGCUCCGUUGAAUGGAGUUUAUCAUG

This sample holds only a part of the variants without activity. Some results are limits rather than exact numbers.

Variants of B1 are the subject of this data set. The data set is described as follows: polymerase ribozyme fitness, log enrichment relative to wild type (log ratio); higher = more active; in vitro selection for triplet polymerase activity. An outline of the steps: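 In triplicate, a single round of in vitro selection was run on each mutant library, PCR-built and transcribed, covering one subunit of a heterodimeric triplet polymerase ribozyme. Frozen incubation at −7 °C followed annealing with a biotinylated primer, partner subunit and triplets, and extended constructs were then gel-excised, streptavidin-captured and taken through RT-PCR. Fitness is the logarithm of genotype enrichment over wild-type enrichment, from inverse-variance-weighted replicate averages of Illumina-sequenced inputs and outputs. […] only genotypes with ≥10 input reads and ≥1 read per output were kept.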
G86A A142C: the “polymerase ribozyme fitness (log ratio)” value is -2.27.
Then C85U G94C, with -0.28.
As for C85U C93G A150G, the figure is ≤ -4.2.
Then C85U A89U C105G, with -1.55.
For the variant C85U A89U C105U, the “polymerase ribozyme fitness (log ratio)” value turned out to be 0.517.
As for C85U A89U G126U U145G, the figure is -3.94; as for C87A G140C, ≤ -4.2; as for C85G C114U, -3.49.
Take C85U C105U A106C U135C G141A: the “polymerase ribozyme fitness (log ratio)” value is -3.94.
In the case of C85G C118A U146C, the “polymerase ribozyme fitness (log ratio)” value was -2.72.
Then C85U A91U C95G G140U, with ≤ -4.2; and C85U C125G G136A, with -0.203; and G86U A120G C129A U145G, with -4.13.
Then C85U C116U, with -0.233; and C85U C116G, with -0.942.
As for G86A C116G A150C, the figure is -3.93.
Regarding C87U G141U, the “polymerase ribozyme fitness (log ratio)” value worked out at 0.462.
As for G86C C105U, the figure is -1.5; as for G86U G140U, -3.83; as for G86U U101C C118U, -1.56.
As for G86U U104A G117C, the figure is -2.37.
C87G A98U: the “polymerase ribozyme fitness (log ratio)” value was -3.64.
Turning to C87G A98G, the “polymerase ribozyme fitness (log ratio)” value was ≤ -4.2.
Take G86U C118U: the “polymerase ribozyme fitness (log ratio)” value was -1.69.
Then C85U C99G G136U, with -2.88; and C87G G141C, with -3.99; and C87U U146G, with -0.864.
Regarding C85U C96U, the “polymerase ribozyme fitness (log ratio)” value was -0.746.
On to G86U, for which the “polymerase ribozyme fitness (log ratio)” value is -1.62.
G86C: the “polymerase ribozyme fitness (log ratio)” value is -2.55.
Then G86A, with -0.877; and G86A G141U, with -1.07.
Regarding C87A U151G, the “polymerase ribozyme fitness (log ratio)” value was ≤ -4.2.
Then C85U C129U, with -0.359; and C85U C87G C95G C131A U134G A147U, with ≤ -4.2; and G86A A122G, with -1.11.
Take C87U A115U: the “polymerase ribozyme fitness (log ratio)” value is -1.73.
Then C87G C105U U127C, with -4.1; and C85U A98U G117A, with -0.373; and C85G G126A U146A, with -1.79.
Then C87U A137C, with -3.99; and C87U A137G, with -1.81; and C87U A121U, with -0.38.
Then C85U G143A, with 0.273; and C85U A89G A106G G117A G126C G143C, with ≤ -4.2.
For the variant G86C C96U, the “polymerase ribozyme fitness (log ratio)” value is -2.67.
Then C85U U104G, with -0.929.
Then C87U A107U, with -3.34; and C87U A89G, with -3.41; and G86A A110U, with ≤ -4.2.
Then C85G C149U, with -2.46.
On to C85G C116U U144C, for which the “polymerase ribozyme fitness (log ratio)” value is -3.36.
Then C85U U134A, with -3.04; and C85U U134G, with -2.89.
For the variant C87G U139A, the “polymerase ribozyme fitness (log ratio)” value is ≤ -4.2.
Turning to C87U G140U, the “polymerase ribozyme fitness (log ratio)” value is -3.68.
As for C85G G92U G136A G141A, the figure is -3.06; as for G86A C118U G141C, -1.77; as for G86A C149A, ≤ -4.2.
For G86C C116U, the “polymerase ribozyme fitness (log ratio)” value is -2.44.
As for C87U C132U, the figure is -1.11; as for C87U C132G, -3.72; as for C87A G124U, ≤ -4.2.
As for G86C U104A, the figure is -2.46; as for G86A C87G, -3.97.
Then C85G G143U, with -3.79; and C87U C96U C125U U144A, with -2.68.
For C87A C96U C99G U111C C125A, the “polymerase ribozyme fitness (log ratio)” value is ≤ -4.2.
On to C87A C123A A150U, for which the “polymerase ribozyme fitness (log ratio)” value was -3.19.
Then C87U C129A, with -2.76; and G86U C93A G94A, with -0.505.
Then C85G C125A U130C, with -1.52; and C87A A107C U139C U151A, with ≤ -4.2.
Then C85U G136U G152C, with ≤ -4.2.
Consider C85U A91C U102C, for which the “polymerase ribozyme fitness (log ratio)” value was ≤ -4.2.
Then G86U C96A, with -2.89; and C87U C118U A147U, with -0.411.
Then C85U U135G G141A, with -3.54.
As for C87U C108U, the figure is -3.61; as for G86A A107U, -3.39; as for C85U U145G, -2.
Consider C85U U145A, for which the “polymerase ribozyme fitness (log ratio)” value is -0.468.
Then C85U U151G, with -4.14.
Regarding G88A A91C, the “polymerase ribozyme fitness (log ratio)” value was ≤ -4.2.
Then C87G C116U, with -3.77.
Turning to C85G G133U, the “polymerase ribozyme fitness (log ratio)” value was ≤ -4.2.
Regarding C87U U102C, the “polymerase ribozyme fitness (log ratio)” value is -1.21.
As for C85U G126U U139A U144C, the figure is -3.59; as for G86C C131U, -2.55.
Regarding G86U G143A, the “polymerase ribozyme fitness (log ratio)” value was -2.53.
Regarding G86C U101G G124U G152A, the “polymerase ribozyme fitness (log ratio)” value is -4.15.
For the variant C85U C95U, the “polymerase ribozyme fitness (log ratio)” value is -1.72.
As to C85U C103U, the “polymerase ribozyme fitness (log ratio)” value is -2.17.
As for C85U C87U C108U C114A, the figure is ≤ -4.2; as for C87G A89U, ≤ -4.2; as for G86U G88A A150C, ≤ -4.2.
In the case of G86U A89U A113U C131G, the “polymerase ribozyme fitness (log ratio)” value is ≤ -4.2.
As for C87U U145A, the figure is 0.0527; as for C87U U145G, -1.51; as for C85G G94A C95G U135A, -3.95.
Then C87G G92C C125U U127G U135G G141C, with ≤ -4.2; and C87U U151G, with -3.96.
As for C87A U90C G117C, the figure is -3.77; as for C85U G94A G152C, -3.09.
Take G86U C87A C95A U104A: the “polymerase ribozyme fitness (log ratio)” value was ≤ -4.2.
C85U A150C G152U: the “polymerase ribozyme fitness (log ratio)” value is -3.38.
For the variant C87G A106G, the “polymerase ribozyme fitness (log ratio)” value was -4.
Then C87U C114G, with -2.79.
As for G86U G141A U146C, the figure is -1.62.
As to G86C G92A, the “polymerase ribozyme fitness (log ratio)” value was ≤ -4.2.
As for G86U C105A, the figure is -2.68; as for G86U G88U G94U A150U, ≤ -4.2.
Then C85U A115U, with -2.38; and C85U A115G, with -2.3.
As for C85U A89U A119C, the figure is -0.895; as for C87U A115U G140U, -4.19.
For C87G U134A, the “polymerase ribozyme fitness (log ratio)” value was ≤ -4.2.
As for C87U A137G U148C, the figure is -3.87; as for C87U C93G A121U C132A, ≤ -4.2; as for C87G G140C, ≤ -4.2.
As for C85G G141C, the figure is -3.06; as for C87U C96G A113U, -2.85.
On to G86A G143C, for which the “polymerase ribozyme fitness (log ratio)” value is -2.14.
As for G86A G143A, the figure is -1.25.
As for G86A G143U, the figure is -3.07; as for G86A C105U, -0.138.
Take C85U G86C G88A U90G A121U G128A: the “polymerase ribozyme fitness (log ratio)” value was ≤ -4.2.
C87G C105G: the “polymerase ribozyme fitness (log ratio)” value is ≤ -4.2.
Then C87G G152U, with -3.57; and G86U A137G, with -3.03; and C87G U104G, with ≤ -4.2.
Then C87U C118G, with -1.33.
As for G86U A107G G143C U151A, the figure is ≤ -4.2.
C85U U148A: the “polymerase ribozyme fitness (log ratio)” value was -3.08.
As for C85U U148C, the figure is -2.19.
With G86A C99G, the “polymerase ribozyme fitness (log ratio)” value was -3.06.
For the variant C85U G128A, the “polymerase ribozyme fitness (log ratio)” value was -3.29.
Consider G86U G100U, for which the “polymerase ribozyme fitness (log ratio)” value is ≤ -4.2.
As for C85G C96U, the “polymerase ribozyme fitness (log ratio)” value is -2.26.
For the variant C85G C96G, the “polymerase ribozyme fitness (log ratio)” value is -3.49.
As for C85U U90C, the figure is -3.89; as for C85U A121U C132A U134A, -4.16.
As for G86A C103G U134A, the figure is ≤ -4.2; as for C85U C132U, -0.776.
Then C87A C93G C114U G141C, with ≤ -4.2.
Regarding G86C G124A U144A, the “polymerase ribozyme fitness (log ratio)” value was -2.44.
As for C87G A142G, the figure is -4.14; as for G86A A89U C123U, -2.1; as for C85G U102G C129U A150C, ≤ -4.2.
Turning to C87A G133C U145C U146C, the “polymerase ribozyme fitness (log ratio)” value was ≤ -4.2.
Consider C85U A122C, for which the “polymerase ribozyme fitness (log ratio)” value was -1.06.
Then G88A A106G, with -3.55; and C87U A98G A106G, with -1.08; and G86A A89U C105U U134A, with -3.77.
Turning to C85G U135C, the “polymerase ribozyme fitness (log ratio)” value is -3.66.
With C85G U135A, the “polymerase ribozyme fitness (log ratio)” value was -3.38.
Then C85U A98C G117C, with 0.631.
Then C85U U134C U144A C149A, with -4.1; and C87A G100U, with ≤ -4.2; and C87A C105U A107U, with ≤ -4.2.
Then C85G G141A C149G, with ≤ -4.2.
C87A A147G: the “polymerase ribozyme fitness (log ratio)” value was ≤ -4.2.
In the case of G88A A98U A106C, the “polymerase ribozyme fitness (log ratio)” value is ≤ -4.2.
As for C87U A122G, the figure is -1.83; as for C85G C116U, -1.66; as for C85U G133U, -2.28.
As for C85U G133C, the figure is -1.69.
